Blank lines part the entries; values can stand above or below the binder they belong to.
Assays:
[1] = molecular target: T1, Neurospora crassa protein X (endogenous, in the native PDC) (N. crassa (endogenous in N. crassa …, UniProt Q7RWS2 1-426)); test: cryo-EM structure; single-particle cryo-EM of intact native PDC purified from N. crassa mitochondria; icosahedral and tetrahedral (classes X, Y) reconstructions; details: both partners purified
T1 construct: Protein X (PX) of the pyruvate dehydrogenase complex, Neurospora crassa, uniprot Q7RWS2, locus NCU00050; Forms trimers inside the E2 core; also called PX; X-component; source: endogenous, PDC purified from N. crassa mitochondria (DDM lysis, sucrose cushion, sucrose gradient, SEC)
T1 sequence (looked up): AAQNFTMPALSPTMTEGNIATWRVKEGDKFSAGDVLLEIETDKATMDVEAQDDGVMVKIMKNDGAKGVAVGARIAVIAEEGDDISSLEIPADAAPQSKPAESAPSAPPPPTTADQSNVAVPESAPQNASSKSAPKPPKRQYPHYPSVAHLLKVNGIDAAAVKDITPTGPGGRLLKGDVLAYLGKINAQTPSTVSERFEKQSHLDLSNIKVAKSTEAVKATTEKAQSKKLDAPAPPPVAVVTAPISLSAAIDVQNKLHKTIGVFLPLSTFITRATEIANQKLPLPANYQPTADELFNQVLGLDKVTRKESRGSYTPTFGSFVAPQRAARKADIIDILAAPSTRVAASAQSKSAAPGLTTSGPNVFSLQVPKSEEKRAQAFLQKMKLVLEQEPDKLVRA

[2] = molecular target: the molecule itself; test: as above
[3] = molecular target: T2, N. crassa PX (30-426), His-tagged, separately expressed (N. crassa, UniProt Q7RWS2 30-426); test: pull-down; separately expressed tE2 and His-tagged PX variants, brief incubation, co-purified by Ni-NTA affinity
T2 construct: Protein X (PX), Neurospora crassa, residues 30-426 of uniprot Q7RWS2; His6 tag is cleavable with TEV; protein was either cleaved with TEV or eluted with imidazole depending on the purpose; also called full-length PX; source: E. coli Rosetta2 (DE3), pRSET vector, single expression, Ni-NTA
T2 sequence (looked up): T1 sequence (looked up)

[4] = molecular target: the molecule itself; test: cryo-EM structure; single-particle cryo-EM of the reconstituted tE2 + PX30 recombinant subcomplex, icosahedral symmetry
[5] = molecular target: the molecule itself; test: cryo-EM structure; single-particle cryo-EM of the co-expressed tE2 + PX261 subcomplex, icosahedral symmetry

stoichiometry N [1]: ≤ 12 PX monomers per E2 core
B1: Neurospora crassa pyruvate dehydrogenase complex E2 (endogenous, core of the native PDC) (enzyme, UniProt P20285 29-458, looked up)
chain: ASYPPHTVVKMPALSPTMTSGGIGAWQKKPGDKIEPGEVLVEIETDKAQMDFEFQEEGVLAKILKDSGEKDVAVGNPIAILVEEGTDVNAFKDFTLKDAGGETSPAVPKDEPKNESTASAPTPAPTPAPEPENTSFTGRFQTALEREPNALPAAKRLAREKGIDLRNVKGSGPGGKITEEDVKKALASAPAAGAAAAAYTDVPISGMRKTIAARLKESVTENPHFFVSTNLSVSKLLKLRQALNSSADGRYKLSVNDFLIKAMGIASKRVPTVNSSWRDGVIRQFETVDVSVAVATPNGLITPIVKGVEGKGLESISAAVKELAKKARDGKLKPEEYQGGSISISNMGMNPAVQSFTAIINPPQAAILAVGAPQKVAVPVENEDGTTGVSWDEQIIVTASFDHKVVDGAVGAEWIRELKKVIENPLELLL
notes: E2 of the pyruvate dehydrogenase complex, Neurospora crassa, uniprot P20285; residues 232-458 identified in the native reconstruction; Icosahedral core of 60 E2 in the native complex; only the core-forming domain is ordered in the map; also called E2 core; PDC core; source: endogenous, PDC purified from N. crassa mitochondria (DDM lysis, sucrose cushion, sucrose gradient, SEC); copies: 60
stoichiometry N [2]: 60

binding result [3]: binds
B2: N. crassa E2 core-forming domain, tE2 (225-458), separately expressed (domain or fragment, UniProt P20285 225-458, looked up)
chain: AAYTDVPISGMRKTIAARLKESVTENPHFFVSTNLSVSKLLKLRQALNSSADGRYKLSVNDFLIKAMGIASKRVPTVNSSWRDGVIRQFETVDVSVAVATPNGLITPIVKGVEGKGLESISAAVKELAKKARDGKLKPEEYQGGSISISNMGMNPAVQSFTAIINPPQAAILAVGAPQKVAVPVENEDGTTGVSWDEQIIVTASFDHKVVDGAVGAEWIRELKKVIENPLELLL
notes: E2 core-forming domain, Neurospora crassa, residues 225-458 of uniprot P20285; His6 tag is cleavable with thrombin; PDB 6ZLO covers residues 227-458; source: E. coli Rosetta2 (DE3), pRSET vector, single expression
binding result [4]: binds

B3: N. crassa E2 core-forming domain, tE2 (225-458), untagged, co-expressed with PX constructs (domain or fragment, UniProt P20285 225-458, looked up)
chain: B2 chain
notes: E2 core-forming domain, Neurospora crassa, residues 225-458 of uniprot P20285; also called untagged E2 core-forming domain; source: E. coli Rosetta2 (DE3), petDuet dual-expression vector, co-expressed with His-tagged PX constructs, in lysate; co-purified on Ni-NTA
binding result [5]: binds
